T1: human Nectin-4 protein (human, UniProt Q96NY8 32-349)
T1 construct: Purified protein used for coating in ELISA and as analyte in Octet; also called human Nectin-4 antigen
T1 sequence (looked up): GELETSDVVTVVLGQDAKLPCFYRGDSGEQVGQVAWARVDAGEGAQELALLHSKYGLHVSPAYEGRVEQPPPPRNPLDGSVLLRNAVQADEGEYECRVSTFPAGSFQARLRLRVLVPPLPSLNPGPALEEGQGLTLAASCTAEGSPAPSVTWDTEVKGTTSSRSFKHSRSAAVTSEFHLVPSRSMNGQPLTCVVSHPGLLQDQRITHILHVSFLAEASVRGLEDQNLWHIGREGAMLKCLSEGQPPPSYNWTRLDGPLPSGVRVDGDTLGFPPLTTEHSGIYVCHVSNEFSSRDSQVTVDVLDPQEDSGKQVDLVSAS

T2: human Nectin-1 antigen (human, UniProt Q15223 31-334, limits assumed)
T2 sequence (looked up): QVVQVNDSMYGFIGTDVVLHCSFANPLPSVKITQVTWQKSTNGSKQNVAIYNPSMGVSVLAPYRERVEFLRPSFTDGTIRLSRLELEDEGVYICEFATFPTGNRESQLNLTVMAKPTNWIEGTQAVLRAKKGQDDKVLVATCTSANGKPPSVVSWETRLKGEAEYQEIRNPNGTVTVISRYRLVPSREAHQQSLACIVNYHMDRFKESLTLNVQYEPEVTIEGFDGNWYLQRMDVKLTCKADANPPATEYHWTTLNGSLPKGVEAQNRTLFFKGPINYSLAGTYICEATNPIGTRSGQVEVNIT

T3: human Nectin-2 antigen (human, UniProt Q92692 32-360, limits assumed)
T3 sequence (looked up): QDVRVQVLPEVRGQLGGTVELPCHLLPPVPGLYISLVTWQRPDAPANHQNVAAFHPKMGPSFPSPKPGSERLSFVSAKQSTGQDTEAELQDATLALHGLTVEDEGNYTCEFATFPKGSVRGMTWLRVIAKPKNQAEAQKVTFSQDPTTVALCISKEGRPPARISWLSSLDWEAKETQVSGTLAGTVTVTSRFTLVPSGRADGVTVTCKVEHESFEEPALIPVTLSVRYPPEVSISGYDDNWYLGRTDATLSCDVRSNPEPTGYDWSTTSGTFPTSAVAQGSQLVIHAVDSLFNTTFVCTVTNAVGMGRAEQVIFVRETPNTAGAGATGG

B1: anti-human Nectin-4 humanized monoclonal antibody 56HZ (antibody, human IgG1, kappa, V domains shown)
VH: QVQLQESGPGLVKPSQTLSLTCTVSGYFNSITSDYDWHWIRHHPGKGLEWMGYISFSGRTYYNPSLKSRVTISHDTSKNQFSLKLSSVTAADTAVYYCARGNYDGFDYWGQGTLVTVSS
VL: DIVLTQSPATLSLSPGERATLSCRASQNIGTSIHWYQHKPGQSPRLLIKFASESISGIPARFSGSGSGTDFTLTISSLEPEDFAVYYCQQSKSWPTYTFGGGTKVEIKR
notes: Human IgG1 heavy chain constant region, human kappa light chain constant region; expressed in CHO-E cells
B2: anti-human Nectin-4 humanized monoclonal antibody 74HZ (antibody, human IgG1, kappa, V domains shown)
VH: QVQLVQSGAEVKKPGSSVKVSCKASGYTFINYWMNWVRQAPGQGLEWIGMIHPSDSATRLNQSFQGRVTLTVDKSTSTAYMELSSLRSEDTAVYYCARWGNFYTVNAWYYFDYWGQGTLVTVSS
VL: DIVITQSPDSLAVSLGERATINCKSSQTLLNSNTQKNYLAWYQQKPGQSPKLLFYFASTRESGVPDRFSGSGSGTDFTLTISSLQAEDVAVYFCQQHYSTPLTFGQGTKLEIKR
notes: as for B1
B3: anti-human Nectin-4 humanized monoclonal antibody 31HZ (antibody, human IgG1, kappa, V domains shown)
VH: QVQLVQSGAEVKKPGSSVKVSCKASGYTFTDYWMNWVRLAPGQGLEWIGMIHPSDSETRLNQKFQGRVTLTVDKSTSTAYMELSSLRSEDTAVYYCARWDFRIYYAMDYWGQGTLVTVSS
VL: DVVITQSPDSLAVSLGERATINCKSSQSLLNTNSQKNYLAWYQQKPGQSPKLLVYFASTRESGVPDRFSGSGSGTDFTLTISSLQAEDVAVYFCQQHYSTPLTFGGGTKVEIKR
notes: as for B1

What was measured:
human Nectin-4 protein [1] = biological target: T1, human Nectin-4 protein; assay: ELISA, coated antigen
Description: (§1) The affinity of anti-human Nectin-4 humanized monoclonal antibodies to Nectin-4 protein of different species was detected by ELISA.

[2] = biological target: T4, cynomolgus monkey Nectin-4 protein (cynomolgus monkey); assay: ELISA, coated antigen
T4 construct: also called cynomolgus monkey Nectin-4 antigen
Description: as §1

human Nectin-1 antigen = biological target: T2, human Nectin-1 antigen; assay: ELISA, coated human Nectin-1, anti-human-HRP
Method: (§2) The Nectin family includes members of Nectin-1, Nectin-2, Nectin-3 and Nectin-4, and the members share a sequence identity of about 25%, but have similar structure and function. […] The specific steps were as follows: human Nectin-1, Nectin-2, Nectin-3 and Nectin-4 antigens were diluted to 1 μg/mL with CBS coating solution, coated on an ELISA plate at 100 μL per well, and standed overnight at 4° C.; the liquid in the well was discarded on the next day, and washing was performed once with 300 μL of PBS; 100 μL of PBS (containing 2% BSA) was added, and blocking was performed at 37° C. for 2 hours; 31HZ, 56HZ, 74HZ and Enfortumab antibodies were diluted with PBS (containing 2% BSA), 100 μL was taken and added to the corresponding well, incubated at 37° C. for 2 hours; washing was performed 3 times with 300 μL of PBST; HRP-labeled goat anti-human secondary antibody was diluted at a ratio of 1:10000 with PBS (containing 2% BSA), 100 μL was taken and added to the corresponding well, incubation was performed at 37° C. for 1 hour; washing was performed 5 times with 300 μL of PBST; 100 μL of TMB color development solution was added to the corresponding well, and color development was performed at room temperature for 5-20 minutes; 50 μL of 2N H₂SO₄ was added for stopping, a microplate reader was used for collecting readings at OD450 nm, and the data were imported into Graphpad Prism for curve fitting.

human Nectin-2 antigen = biological target: T3, human Nectin-2 antigen; assay: ELISA, coated human Nectin-2, anti-human-HRP
Method: as §2

human Nectin-3 antigen = human Nectin-3 antigen (human, UniProt Q9NQS3 58-404, limits assumed); assay: ELISA, coated human Nectin-3, anti-human-HRP
human Nectin-3 antigen, sequence (Q9NQS3 58-404 limits assumed): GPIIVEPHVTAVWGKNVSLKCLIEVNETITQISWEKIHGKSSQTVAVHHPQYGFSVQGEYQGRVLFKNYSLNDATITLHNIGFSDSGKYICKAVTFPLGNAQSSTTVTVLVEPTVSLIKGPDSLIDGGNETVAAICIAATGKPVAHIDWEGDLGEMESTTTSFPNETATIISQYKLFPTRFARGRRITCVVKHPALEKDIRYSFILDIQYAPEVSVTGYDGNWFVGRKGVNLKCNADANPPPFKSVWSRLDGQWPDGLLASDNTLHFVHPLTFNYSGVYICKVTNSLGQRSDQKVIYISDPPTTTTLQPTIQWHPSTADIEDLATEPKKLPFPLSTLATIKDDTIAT
Method: as §2

human Nectin-4 protein [3] = biological target: T1, human Nectin-4 protein; assay: competitive ELISA, coated Nectin-4; competitor biotin-labeled Nectin-1-hFc
Method: Human Nectin-4 is linked to another Nectin-4 molecule or Nectin-1 molecule through the IgV domain. Because 31HZ, 56HZ and 74HZ all bind to the IgV domain of Nectin-4, the competitive activity of the three antibodies was detected by competitive ELISA. The specific steps were as follows: Nectin-4 protein was diluted to 2 μg/mL with CBS coating solution, 100 μL per well, and incubated at 37° C. for 2 hours; washing was performed once with 300 μL PBST, PBS (2% BSA) was then added, 100 μL per well, and incubation was performed at 37° C. for 2 hours; biotin-labeled Nectin-1-hFc was diluted with PBS (2% BSA) to 20 μg/mL; the antibody to be detected was diluted with PBS (2% BSA), wherein the dilution of 31HZ and 74HZ was started from 3.73 μg/mL, 3-fold dilution, and 9 concentration points, the dilution of 56HZ was started from 1.25 μg/mL, 2-fold dilution, and 10 concentration points; the above two diluted solutions were mixed well in equal volumes, and then added to the corresponding well at 100 μL/well, and incubation was performed at room temperature for 2 hours; washing was performed three times with 300 μL PBST; HRP-streptavidin was diluted with PBS (2% BSA) at a ratio of […], and added to the corresponding well at 100 μL/well, incubation was performed at room temperature for 1 hour; washing was performed five times with 300 μL of PBST; 100 μL of TMB was added to the corresponding well, color development was performed at room temperature for 10 minutes, and then terminated by adding 50 μL of 2N H₂SO₄, and a microplate reader was used for collecting readings at 450 nm.

| Binder | EC50 (human Nectin-4 protein [1]) [ng/mL] | EC50 [2] [ng/mL] | binding result (human Nectin-1 antigen) | binding result (human Nectin-2 antigen) | binding result (human Nectin-3 antigen) | IC50 (human Nectin-4 protein [3]) [ng/mL] |
| --- | --- | --- | --- | --- | --- | --- |
| B1 | 9.48 | 9.85 | no binding | no binding | no binding | 26.9 |
| B2 | 8.34 | 6.73 | no binding (tested: 10000 ng/mL) | no binding (tested: 10000 ng/mL) | no binding (tested: 10000 ng/mL) | 27.2 |
| B3 | 3.6 | 4.45 | no binding (tested: 10000 ng/mL) | no binding (tested: 10000 ng/mL) | no binding (tested: 10000 ng/mL) | 27.6 |
